Results reported in patent US20240352438A1, “MEANS AND METHODS FOR DETOXIFYING OCHRATOXIN A” (DSM Austria GmbH, priority 2021, published 2024).

B1: 160 (protein)
chain: MTTRTRILTAFLSLLAANACAADAAPAAPHTVVLRAARMFDGASGKLVDHPQLTIVGNKIVRIAQGDKAEVPAGAEVVDLGDATLLPGFIDAHVHLSGQSSDNWYGDFFDNMMRFPAEQALYGAYYARITLEAGFTSVRDVGSTDWVALGLRNAIDAGKVPGPRMLVSNYAVGSTGGHADQDPIPPHKLPLAGPLQGVCNGPEECRAAVRYQIKYGANVIKFMPSGGVLSLSDPVDAPELSQDEMNAVIGESHAWGRKVAAHAHGDKAAKMAVAAGVDSIEHGSFIEDDTLRAMKAKNVYLVPTISAVAHVEEKIGTYPPVIAEKGRAAAAHLRQTFRHAVQIGVPIALGTDAGVGAHGSNAREFRYMVENGLTPAQALLAGTANAARLLGTFDRVGTLEAGKLADVVAVPGNPIADITVTERPLFVMKDGVVVRRDAVR
modifications: exemplary polypeptide
B2: 168 (protein)
chain: MTTRTRILTAFLSLLAANACAADAAPAAPHTVVLRAARMFDGASGKLVDHPQLTIVGNKIVRIAQGDKAEVPAGAEVVDLGDATLLPGFIDAHVHLSGQSSDNWYGDFFDNMMRFPAEQALYGAYYARITLEAGFTSVRDVGSTDWVALGLRNAIDAGKVPGPRMLVSNYPVGSTGGHADQDPIPPHKLPLAGPLQGVCNGPEECRAAVRYQIKYGANVIKFMPSGGVLSLSDPVDAPELSQDEMNAVIGESHAWGRKVAAHAHGDKAAKMAVAAGVDSIEHGSFIEDDTLRAMKAKNVYLVPTISAAAHVEEKIGTYPPVIAEKGRAAAAHLRQTFRHAVQIGVPIALGTDAGVGAHGSNAREFRYMVENGLTPAQALLAGTANAARLLGTFDRVGTLEAGKLADVVAVPGNPIADITVTERPLFVMKDGVVVRRDAVR
modifications: exemplary polypeptide
B3: 232 (protein)
chain: MTTRTRILTAFLSLLAANACAADAAPAAPHTVVLRAARMFDGASGKLVDHPQLTIVGNKIVRIAQGDKAEVPAGAEVVDLGDATLLPGFIDAHVHLSGQSSDNWYGDFFDNMMRFPAEQALYGAYYARITLEAGFTSVRDVGSTDWVALGLRNAIDAGKVPGPRMLVSNYAVGSTGGHADQDPIPPHKLPLAGPLQGVCNGPEECRAAVRYQIKYGANVIKFMPSGGVLSLSQPVDAPELSQDEMNAVIGESHAWGRKVAAHAHGDKAAKMAVAAGVDSIEHGSFIEDDTLRAMKAKNVYLVPTISAIAHVEEKIGTFPPVIAEKGRAAAAHLRQTFRHAVQIGVPIALGTDAGVGAHGSNAREFRYMVENGLTPAQALLAGTANAARLLGTFDRVGTLEAGKLADVVAVPGNPIADITVTERPLFVMKDGVVVRRDAVR
modifications: exemplary polypeptide
B4: 162 (protein)
chain: MTTRTRILTAFLSLLAANACAADAAPAAPHTVVLRAARMFDGASGKLVDHPQLTIVGNKIVRIAQGDKAEVPAGAEVVDLGDATLLPGFIDAHVHLSGQSSDNWYGDFFDNMMRFPAEQALYGAYYARITLEAGFTSVRDVGSTDWVALGLRNAIDAGKVPGPRMLVSNYAVGSTGGHADQDPIPPHKLPLAGPLQGVCNGPEECRAAVRYQIKYGANVIKFMPSGGVLSLSDPVDAPELSQDEMNAVIGESHAWGRKVAAHAHGDKAAKMAVAAGVDSIEHGSFIEDDTLRAMKAKNVYLVPTISAVAHVEEKIGTFPPVIAEKGRAAAAHLRQTFRHAVQIGVPIALGTDAAVGAHGSNAREFRYMVENGLTPAQALLAGTANAARLLGTFDRVGTLEAGKLADVVAVPGNPIADITVTERPLFVMKDGVVVRRDAVR
modifications: exemplary polypeptide
B5: 169 (protein)
chain: MTTRTRILTAFLSLLAANACAADAAPAAPHTVVLRAARMFDGASGKLVDHPQLTIVGNKIVRIAQGDKAEVPAGAEVVDLGDATLLPGFIDAHVHLSGQSSDNWYGDFFDNMMRFPAEQALYGAYYARITLEAGFTSVRDVGSTDWVALGLRNAIDAGKVPGPRMLVSNYPVGSTGGHADQDPIPPHKLPLAGPLQGVCNGPEECRAAVRYQIKYGANVIKFMPSGGVLSLSDPVDAPELSQDEMNAVIGESHAWGRKVAAHAHGDKAAKMAVAAGVDSIEHGSFIEDDTLRAMKAKNVYLVPTISAVAHVEEKIGTYPPVIAEKGRAAAAHLRQTFRHAVQIGVPIALGTDAGVGAHGSNAREFRYMVENGLTPAQALLAGTANAARLLGTFDRVGTLEAGKLADVVAVPGNPIADITVTERPLFVMKDGVVVRRDAVR
modifications: exemplary polypeptide
B6: 163 (protein)
chain: MTTRTRILTAFLSLLAANACAADAAPAAPHTVVLRAARMFDGASGKLVDHPQLTIVGNKIVRIAQGDKAEVPAGAEVVDLGDATLLPGFIDAHVHLSGQSSDNWYGDFFDNMMRFPAEQALYGAYYARITLEAGFTSVRDVGSTDWVALGLRNAIDAGKVPGPRMLVSNYAVGSTGGHADQDPIPPHKLPLAGPLQGVCNGPEECRAAVRYQIKYGANVIKFMPSGGVLSLSDPVDAPELSQDEMNAVIGESHAWGRKVAAHAHGDKAAKMAVAAGVDSIEHGSFIEDDTLRAMKAKNVYLVPTISAIAHVEEKIGTYPPVIAEKGRAAAAHLRQTFRHAVQIGVPIALGTDAAVGAHGSNAREFRYMVENGLTPAQALLAGTANAARLLGTFDRVGTLEAGKLADVVAVPGNPIADITVTERPLFVMKDGVVVRRDAVR
modifications: exemplary polypeptide
B7: 165 (protein)
chain: MTTRTRILTAFLSLLAANACAADAAPAAPHTVVLRAARMFDGASGKLVDHPQLTIVGNKIVRIAQGDKAEVPAGAEVVDLGDATLLPGFIDAHVHLSGQSSDNWYGDFFDNMMRFPAEQALYGAYYARITLEAGFTSVRDVGSTDWVALGLRNAIDAGKVPGPRMLVSNYPVGSTGGHADQDPVPPHKLPLAGPLQGVCNGPEECRAAVRYQIKYGANVIKFMPSGGVLSLSDPVDAPELSQDEMNAVIGESHAWGRKVAAHAHGDKAAKMAVAAGVDSIEHGSFIEDDTLRAMKAKNVYLVPTISAVAHVEEKIGTFPPVIAEKGRAAAAHLRQTFRHAVQIGVPIALGTDAGVGAHGSNAREFRYMVENGLTPAQALLAGTANAARLLGTFDRVGTLEAGKLADVVAVPGNPIADITVTERPLFVMKDGVVVRRDAVR
modifications: exemplary polypeptide
B8: 166 (protein)
chain: MTTRTRILTAFLSLLAANACAADAAPAAPHTVVLRAARMFDGASGKLVDHPQLTIVGNKIVRIAQGDKAEVPAGAEVVDLGDATLLPGFIDAHVHLSGQSSDNWYGDFFDNMMRFPAEQALYGAYYARITLEAGFTSVRDVGSTDWVALGLRNAIDAGKVPGPRMLVSNYPVGSTGGHADQDPVPPHKLPLAGPLQGVCNGPEECRAAVRYQIKYGANVIKFMPSGGVLSLSDPVDAPELSQDEMNAVIGESHAWGRKVAAHAHGDKAAKMAVAAGVDSIEHGSFIEDDTLRAMKAKNVYLVPTISAIAHVEEKIGTYPPVIAEKGRAAAAHLRQTFRHAVQIGVPIALGTDAGVGAHGSNAREFRYMVENGLTPAQALLAGTANAARLLGTFDRVGTLEAGKLADVVAVPGNPIADITVTERPLFVMKDGVVVRRDAVR
modifications: exemplary polypeptide
B9: 167 (protein)
chain: MTTRTRILTAFLSLLAANACAADAAPAAPHTVVLRAARMFDGASGKLVDHPQLTIVGNKIVRIAQGDKAEVPAGAEVVDLGDATLLPGFIDAHVHLSGQSSDNWYGDFFDNMMRFPAEQALYGAYYARITLEAGFTSVRDVGSTDWVALGLRNAIDAGKVPGPRMLVSNYPVGSTGGHADQDPVPPHKLPLAGPLQGVCNGPEECRAAVRYQIKYGANVIKFMPSGGVLSLSDPVDAPELSQDEMNAVIGESHAWGRKVAAHAHGDKAAKMAVAAGVDSIEHGSFIEDDTLRAMKAKNVYLVPTISAIAHVEEKIGTFPPVIAEKGRAAAAHLRQTFRHAVQIGVPIALGTDAAVGAHGSNAREFRYMVENGLTPAQALLAGTANAARLLGTFDRVGTLEAGKLADVVAVPGNPIADITVTERPLFVMKDGVVVRRDAVR
modifications: exemplary polypeptide
B10: 164 (protein)
chain: MTTRTRILTAFLSLLAANACAADAAPAAPHTVVLRAARMFDGASGKLVDHPQLTIVGNKIVRIAQGDKAEVPAGAEVVDLGDATLLPGFIDAHVHLSGQSSDNWYGDFFDNMMRFPAEQALYGAYYARITLEAGFTSVRDVGSTDWVALGLRNAIDAGKVPGPRMLVSNYPVGSTGGHADQDPVPPHKLPLAGPLQGVCNGPEECRAAVRYQIKYGANVIKFMPSGGVLSLSDPVDAPELSQDEMNAVIGESHAWGRKVAAHAHGDKAAKMAVAAGVDSIEHGSFIEDDTLRAMKAKNVYLVPTISAAAHVEEKIGTFPPVIAEKGRAAAAHLRQTFRHAVQIGVPIALGTDAGVGAHGSNAREFRYMVENGLTPAQALLAGTANAARLLGTFDRVGTLEAGKLADVVAVPGNPIADITVTERPLFVMKDGVVVRRDAVR
modifications: exemplary polypeptide

Columns and labels:
[1] = OTA detoxification activity assay (specific activity, fluorescence reduction ex/em 390/450 nm); format: biochemical; conditions: SEQ ID NO: 1 = 100%
Method in brief: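 Recombinant enzyme preparation with 200 ng/mL OTA in 100 mM sodium phosphate, at pH 6.0 and pH 7.5, 37° C. Degradation followed as the fall in fluorescence at ex/em 390/450 nm. Specific activity taken from the initial linear slope; one unit degrades 1 μmol OTA per min at a starting OTA of […].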

[2] = Enzymatic activity comparison: activity remaining after 65° C. for 10 min at pH 6.0, relative to SEQ ID NO: 1; format: physicochemical
Method: To compare the temperature behavior and thermostability of selected enzymes to one another, enzyme was incubated at 65° C. for 10 min at pH 6.0. The enzymatic activity remaining after incubation was compared to the remaining activity of the enzyme of SEQ ID NO: 1 after incubation, the latter being set to 100%, see Table 16.

Row | Molecule | Specific OTA detoxification activities in % compared to the enzyme of SEQ ID NO: 1, pH 6.0 [1] [%] | Specific OTA detoxification activities in % compared to the enzyme of SEQ ID NO: 1, pH 7.5 [1] [%] | Enzymatic activity remaining after incubation, compared to SEQ ID NO: 1 (set to 100%) [2] [%]
1 | B1 | 78 | 84 | 30
2 | B2 | 41 | 62 | 48
3 | B3 | – | – | 25
4 | B4 | 191 | 124 | 7
5 | B5 | 50 | 45 | 30
6 | B6 | 145 | 112 | 17
7 | B7 | 46 | 71 | 33
8 | B8 | 72 | 68 | 37
9 | B9 | 54 | 73 | 26
10 | B10 | 29 | 63 | 15
